Experimental data from patent US20210324054A1.
Residue numbers refer to the chain shown, from its start.

B1: WT (recombinant anti-dengue virus NS1 7F8 antibody of Example 2) (antibody, mouse IgG1, kappa, V domains shown)
VH: EVQLQQPGPELVKPGASVKMSCKASGYTVTSYVIHWVRQKPGQGLEWIGYMNAYNDGIKYNEKFIGKAILTSDKSSSTAYMQLSSLTSEDSAVYYCTKEGLFYVMDYWGQGTSVTVSS
VL: QIVLTQSPAIMSASPGEKVTMTCSATSSISYMHWYQQKSGTSPKRWIYDTSKLASPVPVRFSGSGSGTSYSLTISSMEAEDAATYFCQYWRSDLPTFGAGTKLELKR
B2: Mutation 1-17 (antibody, V domains shown)
VH: B1 VH with V29F, A53P
VL: B1 VL with I29V, T50S, P56G, Y89W
B3: Mutation 1-18 (antibody, V domains shown)
VH: B1 VH with V29F, Y32T, A53P, I58L, M105F
VL: B1 VL with I29L, T50S, P56G
B4: Mutation 1-7 (antibody, V domains shown)
VH: B1 VH with V29F, Y32S, A53P, I58L, M105F
VL: B1 VL with I29L, T50S, P56G, Y89W
B5: Mutation 1-8 (antibody, V domains shown)
VH: B1 VH with V29F, A53P, K98R
VL: B1 VL with I29V, P56G, Y89Q
B6: Mutation 2 (antibody, V domains shown)
VH: B1 VH with V29F, Y32T, A53G, I58L, E62N
VL: B1 VL with P56A, Y89Q
B7: Mutation 1-12 (antibody, V domains shown)
VH: B1 VH with V29F, Y32T, A53P, K98R
VL: B1 VL with P56G
B8: Mutation 1 (antibody, V domains shown)
VH: B1 VH with V29F, Y32T, A53P, I58L
VL: B1 VL with P56G, Y89Q
B9: WT 1-11 (antibody, V domains shown)
VH: B1 VH with Y32T, E62D, K98R
VL: B1 VL with A25G, D93V
B10: Mutation 1-6 (antibody, V domains shown)
VH: B1 VH with V29F, Y32T, A53P
VL: B1 VL with P56G
B11: WT 1-19 (antibody, V domains shown)
VH: B1 VH with E62D
VL: B1 VL with A25G, I29V, T50S, Y89Q, D93V
B12: Mutation 1-52 (antibody, V domains shown)
VH: B1 VH with V29F, Y32S, A53P, I58L, M105F
VL: B1 VL with I29L, T50S, P56G, Y89Q
B13: Mutation 1-20 (antibody, V domains shown)
VH: B1 VH with V29F, A53P, I58L, M105F
VL: B1 VL with T50S, P56G
B14: Mutation 1-13 (antibody, V domains shown)
VH: B1 VH with V29F, Y32S, A53P, I58L, K98R, M105F
VL: B1 VL with I29L, T50S, P56G, Y89W
B15: Mutation 1-22 (antibody, V domains shown)
VH: B1 VH with V29F, Y32S, A53P, I58L, K98R, M105F
VL: B1 VL with I29V, T50S, P56G, Y89W
B16: Mutation 1-19 (antibody, V domains shown)
VH: B1 VH with V29F, Y32S, A53P, K98R
VL: B1 VL with I29V, P56G, Y89Q
B17: Mutation 1-4 (antibody, V domains shown)
VH: B1 VH with V29F, Y32S, A53P, I58L
VL: B1 VL with I29L, P56G, Y89W
B18: Mutation 1-21 (antibody, V domains shown)
VH: B1 VH with V29F, Y32T, A53P, K98R
VL: B1 VL with I29L, P56G, Y89W
B19: Mutation 3 (antibody, V domains shown)
VH: B1 VH with V29L, Y32T, A53K, I58L, E62P
VL: B1 VL with A25V, P56C, Y89Q, D93Q
B20: Mutation 1-3 (antibody, V domains shown)
VH: B1 VH with V29F, Y32T, A53P, K98R, M105F
VL: B1 VL with T50S, P56G
B21: WT 1-14 (antibody, V domains shown)
VH: B1 VH with Y32S, I58L, E62D, K98R, M105F
VL: B1 VL with A25G, I29L, T50S, Y89W, D93V
B22: Mutation 1-16 (antibody, V domains shown)
VH: B1 VH with V29F, Y32S, A53P, I58L, K98R
VL: B1 VL with I29L, P56G, Y89W
B23: Mutation 1-5 (antibody, V domains shown)
VH: B1 VH with V29F, A53P, K98R, M105F
VL: B1 VL with I29V, T50S, P56G, Y89Q
B24: Mutation 1-14 (antibody, V domains shown)
VH: B1 VH with V29F, A53P
VL: B1 VL with I29V, T50S, P56G, Y89Q
B25: Mutation 1-11 (antibody, V domains shown)
VH: B1 VH with V29F, A53P, I58L, M105F
VL: B1 VL with I29V, T50S, P56G, Y89Q
B26: Mutation 1-53 (antibody, V domains shown)
VH: B1 VH with V29F, A53P, K98R
VL: B1 VL with I29V, P56G
B27: Mutation 1-1 (antibody, V domains shown)
VH: B1 VH with V29F, Y32S, A53P, M105F
VL: B1 VL with I29L, T50S, P56G, Y89W
B28: WT 1-5 (antibody, V domains shown)
VH: B1 VH with I58L, E62D, M105F
VL: B1 VL with A25G, I29V, T50S, Y89W, D93V
B29: Mutation 1-2 (antibody, V domains shown)
VH: B1 VH with V29F, A53P, I58L, K98R
VL: B1 VL with I29V, P56G, Y89Q
B30: Mutation 1-15 (antibody, V domains shown)
VH: B1 VH with V29F, Y32T, A53P, M105F
VL: B1 VL with T50S, P56G
B31: Mutation 1-51 (antibody, V domains shown)
VH: B1 VH with V29F, Y32T, A53P, I58L, K98R
VL: B1 VL with T50S, P56G, Y89W
B32: Mutation 1-10 (antibody, V domains shown)
VH: B1 VH with V29F, Y32S, A53P
VL: B1 VL with I29L, P56G, Y89W
B33: Mutation 1-9 (antibody, V domains shown)
VH: B1 VH with V29F, Y32T, A53P, I58L, K98R, M105F
VL: B1 VL with T50S, P56G

Assays:
[1] = biological target: DN-IV quality control recombinant protein (produced by the company) (dengue virus); assay: BLI, antibody on AMC sensor
[2] = biological target: Antigen DN-IV-Ag# (Fapon Biotech Inc.) (dengue virus); assay: indirect ELISA on coated DN-IV-Ag#, antibody initial
[3] = biological target: Antigen DN-IV-Ag# (Fapon Biotech Inc.) (dengue virus); assay: indirect ELISA on coated DN-IV-Ag#, antibody diluted 3 times
[4] = biological target: Antigen DN-IV-Ag# (Fapon Biotech Inc.) (dengue virus); assay: indirect ELISA on coated DN-IV-Ag#, antibody diluted 9 times
[5] = biological target: Antigen DN-IV-Ag# (Fapon Biotech Inc.) (dengue virus); assay: indirect ELISA on coated DN-IV-Ag#, antibody diluted 27 times
[6] = biological target: Antigen DN-IV-Ag# (Fapon Biotech Inc.) (dengue virus); assay: indirect ELISA on coated DN-IV-Ag#, antibody diluted 81 times
[7] = biological target: Antigen DN-IV-Ag# (Fapon Biotech Inc.) (dengue virus); assay: indirect ELISA on coated DN-IV-Ag#, antibody diluted 243 times
[8] = biological target: Antigen DN-IV-Ag# (Fapon Biotech Inc.) (dengue virus); assay: indirect ELISA on coated DN-IV-Ag#, antibody diluted 729 times

Row | Binder | Kd [1] | koff [1] | kon [1] | OD450 (reference 630 nm) [2] | OD450 (reference 630 nm) [3] | OD450 (reference 630 nm) [4] | OD450 (reference 630 nm) [5] | OD450 (reference 630 nm) [6] | OD450 (reference 630 nm) [7] | OD450 (reference 630 nm) [8]
1 | B1 | 3.15 nM | 0.000139 s⁻¹ | 44200 M⁻¹ s⁻¹ | 1.42 OD | 1.18 OD | 0.781 OD | 0.398 OD | 0.24 OD | 0.2 OD | 0.211 OD
2 | B2 | 2.52 nM | 0.000114 s⁻¹ | 45200 M⁻¹ s⁻¹ |  |  |  |  |  |  | 
3 | B3 | 0.572 nM | 0.000243 s⁻¹ | 425000 M⁻¹ s⁻¹ |  |  |  |  |  |  | 
4 | B4 | 0.652 nM | 0.00024 s⁻¹ | 368000 M⁻¹ s⁻¹ |  |  |  |  |  |  | 
5 | B5 | 4.08 nM | 0.000172 s⁻¹ | 42200 M⁻¹ s⁻¹ |  |  |  |  |  |  | 
6 | B6 |  |  |  | 1.59 OD | 1.48 OD | 1.05 OD | 0.578 OD | 0.216 OD | 0.11 OD | 0.157 OD
7 | B7 | 2.86 nM | 0.000122 s⁻¹ | 42600 M⁻¹ s⁻¹ |  |  |  |  |  |  | 
8 | B8 | 2.85 nM | 0.000126 s⁻¹ | 44200 M⁻¹ s⁻¹ | 1.61 OD | 1.39 OD | 1.07 OD | 0.445 OD | 0.203 OD | 0.103 OD | 0.111 OD
9 | B9 | 57.1 nM | 0.000244 s⁻¹ | 4270 M⁻¹ s⁻¹ |  |  |  |  |  |  | 
10 | B10 | 0.499 nM | 0.000249 s⁻¹ | 499000 M⁻¹ s⁻¹ |  |  |  |  |  |  | 
11 | B11 | 35.4 nM | 0.000162 s⁻¹ | 4570 M⁻¹ s⁻¹ |  |  |  |  |  |  | 
12 | B12 | 3.02 nM | 0.000124 s⁻¹ | 41000 M⁻¹ s⁻¹ |  |  |  |  |  |  | 
13 | B13 | 3.53 nM | 0.000161 s⁻¹ | 45600 M⁻¹ s⁻¹ |  |  |  |  |  |  | 
14 | B14 | 3.47 nM | 0.000151 s⁻¹ | 43500 M⁻¹ s⁻¹ |  |  |  |  |  |  | 
15 | B15 | 0.59 nM | 0.000245 s⁻¹ | 415000 M⁻¹ s⁻¹ |  |  |  |  |  |  | 
16 | B16 | 2.41 nM | 0.000113 s⁻¹ | 46800 M⁻¹ s⁻¹ |  |  |  |  |  |  | 
17 | B17 | 0.478 nM | 0.000234 s⁻¹ | 490000 M⁻¹ s⁻¹ |  |  |  |  |  |  | 

Row | Binder | Kd [1] | koff [1] | kon [1] | OD450 (reference 630 nm) [2] | OD450 (reference 630 nm) [3] | OD450 (reference 630 nm) [4] | OD450 (reference 630 nm) [5] | OD450 (reference 630 nm) [6] | OD450 (reference 630 nm) [7] | OD450 (reference 630 nm) [8]
18 | B18 | 0.693 nM | 0.000269 s⁻¹ | 388000 M⁻¹ s⁻¹ |  |  |  |  |  |  | 
19 | B19 |  |  |  | 0.923 OD | 0.347 OD | 0.062 OD |  |  |  | 
20 | B20 | 2.9 nM | 0.000119 s⁻¹ | 41100 M⁻¹ s⁻¹ |  |  |  |  |  |  | 
21 | B21 | 45.6 nM | 0.000188 s⁻¹ | 4120 M⁻¹ s⁻¹ |  |  |  |  |  |  | 
22 | B22 | 3.38 nM | 0.000124 s⁻¹ | 36700 M⁻¹ s⁻¹ |  |  |  |  |  |  | 
23 | B23 | 0.508 nM | 0.000213 s⁻¹ | 419000 M⁻¹ s⁻¹ |  |  |  |  |  |  | 
24 | B24 | 2.75 nM | 0.00012 s⁻¹ | 43600 M⁻¹ s⁻¹ |  |  |  |  |  |  | 
25 | B25 | 0.725 nM | 0.0003 s⁻¹ | 414000 M⁻¹ s⁻¹ |  |  |  |  |  |  | 
26 | B26 | 2.71 nM | 0.000115 s⁻¹ | 42500 M⁻¹ s⁻¹ |  |  |  |  |  |  | 
27 | B27 | 0.445 nM | 0.000181 s⁻¹ | 407000 M⁻¹ s⁻¹ |  |  |  |  |  |  | 
28 | B28 | 57.8 nM | 0.000264 s⁻¹ | 4570 M⁻¹ s⁻¹ |  |  |  |  |  |  | 
29 | B29 | 2.79 nM | 0.000116 s⁻¹ | 41600 M⁻¹ s⁻¹ |  |  |  |  |  |  | 
30 | B30 | 3.79 nM | 0.00017 s⁻¹ | 44800 M⁻¹ s⁻¹ |  |  |  |  |  |  | 
31 | B31 | 0.5 nM | 0.000201 s⁻¹ | 402000 M⁻¹ s⁻¹ |  |  |  |  |  |  | 
32 | B32 | 2.65 nM | 0.000129 s⁻¹ | 48700 M⁻¹ s⁻¹ |  |  |  |  |  |  | 
33 | B33 | 0.66 nM | 0.000284 s⁻¹ | 430000 M⁻¹ s⁻¹ |  |  |  |  |  |  | 
